# Results: PMC5175136, “Structural basis of the substrate preference towards CMP for a thymidylate synthase MilA involved in mildiomycin biosynthesis” (Scientific Reports, 2016)
# T1: MilA (Streptomyces rimofaciens, UniProt B4Y380)
# T1 construct: full-length, C-terminal 6xHis tag (LEHHHHHH) kept, pET28a, expressed in E. coli BL21(DE3); homodimer, active site from both subunits
# T1 sequence (B4Y380 1-334): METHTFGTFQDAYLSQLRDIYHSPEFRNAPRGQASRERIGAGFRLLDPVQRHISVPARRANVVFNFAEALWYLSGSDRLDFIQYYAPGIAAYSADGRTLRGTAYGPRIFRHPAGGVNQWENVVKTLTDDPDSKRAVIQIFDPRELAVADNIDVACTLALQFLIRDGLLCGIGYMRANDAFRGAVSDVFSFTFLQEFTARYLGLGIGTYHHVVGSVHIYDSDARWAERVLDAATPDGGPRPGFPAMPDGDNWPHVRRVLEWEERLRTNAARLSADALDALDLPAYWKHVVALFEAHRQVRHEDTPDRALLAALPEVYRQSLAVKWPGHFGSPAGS
# Columns and labels:
# [1] = molecular target: T2, MilA (Streptomyces rimofaciens, UniProt B4Y380, K133R/A176S); test: HPLC/LC-MS of CMP and dCMP competition reaction; type: biochemical; conditions: 1 mM CMP and dCMP together, 2 mM tetrahydrofolate, 15 mM paraformaldehyde, pH 7.5, 37 °C
# T2 construct: full-length, C-terminal 6xHis tag (LEHHHHHH) kept, pET28a, expressed in E. coli BL21(DE3); homodimer, active site from both subunits
# T2 sequence (B4Y380 entry or part of it K133R/A176S): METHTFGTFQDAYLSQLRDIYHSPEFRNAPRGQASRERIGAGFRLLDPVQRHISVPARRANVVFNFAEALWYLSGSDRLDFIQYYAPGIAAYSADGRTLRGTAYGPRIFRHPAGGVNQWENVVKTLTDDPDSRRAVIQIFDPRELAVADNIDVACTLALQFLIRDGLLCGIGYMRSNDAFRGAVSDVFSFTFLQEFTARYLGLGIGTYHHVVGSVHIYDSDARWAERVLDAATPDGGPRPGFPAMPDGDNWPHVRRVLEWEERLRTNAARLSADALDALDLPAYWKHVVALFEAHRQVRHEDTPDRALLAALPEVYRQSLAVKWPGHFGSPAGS
# [2] = molecular target: T3, MilA (Streptomyces rimofaciens, UniProt B4Y380, A176S); test: HPLC/LC-MS of CMP and dCMP competition reaction; type: biochemical; conditions: 1 mM CMP and dCMP together, 2 mM tetrahydrofolate, 15 mM paraformaldehyde, pH 7.5, 37 °C
# T3 construct: full-length, C-terminal 6xHis tag (LEHHHHHH) kept, pET28a, expressed in E. coli BL21(DE3); homodimer, active site from both subunits
# T3 sequence (B4Y380 entry or part of it A176S): as the sequence (B4Y380 entry or part of it K133R/A176S) above, with R133K counted along it
# [3] = molecular target: T1, MilA; test: X-ray crystal structure, […] Å; type: binding; conditions: crystals grown with hmCMP, pH 6.5, 14 °C; active site
# [4] = substrate: Nc1ccn([C@@H]2O[C@H](COP(=O)(O)O)[C@@H](O)[C@H]2O)c(=O)n1; test: HPLC of hmCMP formation, Michaelis-Menten fit; type: biochemical, Streptomyces rimofaciens; conditions: CH2THF co-substrate saturating (from 2 mM tetrahydrofolate), 50 mM Tris-HCl pH 7.5, 37 °C
# Excerpt: HPLC of hmCMP formation, Michaelis-Menten fit on MilA
# [5] = substrate: Nc1ccn([C@H]2C[C@H](O)[C@@H](COP(=O)(O)O)O2)c(=O)n1; test: HPLC of hmdCMP formation, Michaelis-Menten fit; type: biochemical, Streptomyces rimofaciens; conditions: CH2THF co-substrate saturating (from 2 mM tetrahydrofolate), 50 mM Tris-HCl pH 7.5, 37 °C
# Excerpt: HPLC of […] formation, Michaelis-Menten fit on MilA
# [6] = molecular target: the molecule itself; test: crystal structure; hanging-drop vapor diffusion at 14 °C; apo MilA (PEG 3350, lithium sulfate, Tris-HCl pH 8.5) and complexes with CMP, dCMP or hmCMP (sodium cacodylate pH 6.5, sodium acetate); space group P3(2)21, two molecules in the asymmetric unit related by a non-crystallographic twofold rotation
# [7] = crystal structure of complex at 1.65 Å
# [8] = crystal structure of complex at 2.10 Å
molecule,measurement,setting,value
Nc1ccn([C@H]2C[C@H](O)[C@@H](COP(=O)(O)O)O2)c(=O)n1 [dCMP],HPLC/LC-MS of CMP and dCMP competition reaction,[1],"double mutant MilA A176S/K133R, but its efficiency to dCMP is slightly affected"
same,HPLC/LC-MS of CMP and dCMP competition reaction,[2],significantly enhanced its catalytic efficiency toward dCMP
Nc1nc(=O)n([C@@H]2O[C@H](COP(=O)(O)O)[C@@H](O)[C@H]2O)cc1CO [hmCMP],"X-ray crystal structure, 1.80 Å",[3],MilA‒hmCMP complexes have been deposited in the Protein Data Bank
Nc1ccn([C@@H]2O[C@H](COP(=O)(O)O)[C@@H](O)[C@H]2O)c(=O)n1 [CMP],HPLC/LC-MS of CMP and dCMP competition reaction,[2],MilA-A176S could still catalyze the hydroxymethylation reaction of CMP
"MilA, CMP hydroxymethylase from Streptomyces rimofaciens ZJU5119 (wild type, C-terminally His-tagged) (enzyme, UniProt B4Y380 1-334, looked up, MilA, CMP hydroxymethylase of the mildiomycin biosynthetic gene cluster, Streptomyces rimofaciens ZJU5119; full-length, cloned into pET28a; They are disordered in the crystal; also called WT MilA; MilA-WT; source: E. coli BL21(DE3), purified (Ni-NTA, Superdex 200 gel filtration); not shown: His6, C-terminal, kept) METHTFGTFQDAYLSQLRDIYHSPEFRNAPRGQASRERIGAGFRLLDPVQRHISVPARRANVVFNFAEALWYLSGSDRLDFIQYYAPGIAAYSADGRTLRGTAYGPRIFRHPAGGVNQWENVVKTLTDDPDSKRAVIQIFDPRELAVADNIDVACTLALQFLIRDGLLCGIGYMRANDAFRGAVSDVFSFTFLQEFTARYLGLGIGTYHHVVGSVHIYDSDARWAERVLDAATPDGGPRPGFPAMPDGDNWPHVRRVLEWEERLRTNAARLSADALDALDLPAYWKHVVALFEAHRQVRHEDTPDRALLAALPEVYRQSLAVKWPGHFGSPAGS",Km,[4],0.0719 (0.0076) mM
same,kcat,[4]; [7],0.047 s⁻¹
same,kcat/Km,[4]; [7],653 M⁻¹ s⁻¹
same,Km,[5],0.245 (0.0589) mM
same,kcat,[5]; [8],0.032 s⁻¹
same,kcat/Km,[5]; [8],131 M⁻¹ s⁻¹
same,stoichiometry N,[6],2
